Data on 2 molecules can be found in patent US5635615, “High affinity HIV nucleocapsid nucleic acid ligands” (NeXstar Pharmaceuticals, Inc.).

Settings in all cases: tags: processed NC, 55 aa, from pBH10, gift of Agouron Pharmaceutical; label: 5'-32P
Series [1] concerns the target T1, HIV-1 nucleocapsid p7 (NC) (Human immunodeficiency virus type 1 …, UniProt P03347 P03347:378-432). The experiment in a line: inhibition; inhibition of NC-stimulated annealing of con+/con- DNA, 10 nM NC. The protocol:
(§1) This buffer was used and the concentration of each oligo was reduced keeping their action time constant to find an oligo concentration that would give less than 10% duplex formation under these conditions. The conditions in the reaction used for inhibition assay was as follows. 400 pM each DNA oligo (con+/−) was mixed with 10 nM nucleocapsid for 6 minutes at 37° C. in binding buffer containing 200 mM NaCl in a reaction volume of 30 µl. After this time, reactions were stopped by placing on ice and loaded on gel after 2 minutes. Gels were run at 250 volts for 3.5 hours. In reactions where random RNA was added as inhibitor, the concentrations range from 6500 nM to 9 nM. Where selected RNAs were used, the range was 720 nM to 0.11 nM.

In series [2] the target is T1, HIV-1 nucleocapsid p7 (NC). In words: filter; 10 mM NaOAc pH 5.3, 0.1 mM ZnCl2, 5 mM MgCl2, 100 mM NaCl, 37 C.
Experimental: Binding assays were done by adding 5 μl of HIV-1 p7 nucleocapsid protein, at the appropriate concentrations (i.e., ranging from 6×10^-10 to 5×10^-8), to 45 μl of binding buffer (10 mM NaOAc (pH 5.3), 2 mM 2-mercaptoethanol, 0.1 mM ZnCl_2, 5 mM MgCl_2, 100 mM NaCl) on ice, then adding 80,000 cpm of kinased RNA (<200 fmoles) in a volume of 3 to 4 μl. This mix was incubated at 37° C. for 20 minutes. The reactions were then passed over nitrocellulose filters, which were pre-equilibrated in the same buffer, and washed five times with one milliliter each time using a 50 mM Tris-Cl pH 7.5 solution. Filters were dried and counted in cocktail. The protein used in these experiments were frozen and thawed only once. Each binding curve consisted of seven points and each point is the average of duplicates.
The dissociation constants for 12 of the 14 RNA species were determined by nitrocellulose filter binding. These experiments were carried out in duplicates. All binding curves were done using γ-^32P labeled RNA in binding buffer containing 100 mM NaCl.
Series [3] has as its target T1, HIV-1 nucleocapsid p7 (NC). The experiment in a line: inhibition; about 50% inhibition of NC-stimulated annealing of con+/con- DNA, 10 nM NC. The protocol:
as §1

B1: 400-23 (ssRNA)
RNA: GGGAGCUCAGAAUAAACGCUCAACUGAGAACUCUCCCGCUCGCAUUAUUAACCUUCGACAUGAGGCCCGGAUCCGGC
A word on the Ki: it is a dissociation constant, usually derived from enzyme kinetics or from competition with a known ligand. A high value points to a looser hold on the target. For orientation: Kd means the equilibrium constant for the complex coming apart. High values mean weaker binding, low ones tighter binding. B1: the Ki in series [1] turned out to be 3 nM. The molecule also registered a Kd in series [2] of 6 nM.

B2: 400-17 (ssRNA)
RNA: GGGAGCUCAGAAUAAACGCUCAAGUUCUGAGAACUCUCCCCAUUCUAGUGUGCUUCGACAUGAGGCCCGGAUCCGGC
A word on the IC50: it is the midpoint of a concentration-inhibition curve. With B2, the IC50 in series [3] is about 0.5 nM. In series [2], this molecule came in with a Kd of 2 nM.
